The values that follow come from patent publication US20170267738A1 (published 2017).

The target of assay [1] is T1, MAGEA4 (peptide MAG-003) peptide on HLA-A*02:01 (human).
T1 peptide: KVLEHVVRV
The experiment in a line: multimer staining.

The target in assay [2] is T2, MAGEA4 (MAG-003 A6, alanine at position 6) peptide on HLA-A*02:01 (human).
T2 peptide: KVLEHAVRV
The experiment in a line: cytokine release.

Assay [3] has as its target T3, RABGAP1L (peptide RABGAP1L-001) peptide on HLA-A*02:01 (human).
T3 peptide: FLLETVVRV
The experiment in a line: cytokine release.

Assay [4] concerns the target T4, TPX2 (peptide TPX2-001) peptide on HLA-A*02:01 (human).
T4 peptide: KILEDVVGV
The experiment in a line: cytokine release.

Assay [5] addresses T5, ANO5 (peptide ANO5-001) peptide on HLA-A*02:01 (human).
T5 peptide: IVMEHVVFL
The experiment in a line: cytokine release.

In assay [6] the target is T6, AXIN1 (peptide AXIN1-001) peptide on HLA-A*02:01 (human).
T6 peptide: ILDEHVQRV
The experiment in a line: cytokine release.

Assay [7] deals with T7, HERC4 (peptide HERC4-001) peptide on HLA-A*02:01 (human).
T7 peptide: KVLEILHRV
The experiment in a line: cytokine release.

The target of assay [8] is T8, PSME2 (peptide PSME2-001) peptide on HLA-A*02:01 (human).
T8 peptide: KVLERVNAV
The experiment in a line: cytokine release.

In assay [9] the target is T9, CNOT1 (peptide CNOT1-003) peptide on HLA-A*02:01 (human).
T9 peptide: KVLGIVVGV
The experiment in a line: cytokine release.

Assay [10] concerns the target T10, MAGEA4 (MAG-003 A9, alanine at position 9; same residues as SEQ ID NO: 3) peptide on HLA-A*02:01 (human).
T10 peptide: KVLEHVVRA
The experiment in a line: cytokine release.

The target in assay [11] is T11, MIA3 (peptide MIA3-001) peptide on HLA-A*02:01 (human).
T11 peptide: KVLDKVFRA
The experiment in a line: cytokine release.

In assay [12] the target is T12, HEATR5A (peptide HEATR5A-001) peptide on HLA-A*02:01 (human).
T12 peptide: KVLETLVTV
The experiment in a line: cytokine release.

Assay [13] has as its target T13, MAGEA4 (MAG-003 A7, alanine at position 7) peptide on HLA-A*02:01 (human).
T13 peptide: KVLEHVARV
The experiment in a line: cytokine release.

In assay [14] the target is T14, SYNE3 (peptide SYNE3-001) peptide on HLA-A*02:01 (human).
T14 peptide: KLLDLQVRV
The experiment in a line: cytokine release.

For assay [15], the target named is T15, MAGEA4 (MAG-003 A2, alanine at position 2; same residues as SEQ ID NO: 9) peptide on HLA-A*02:01 (human).
T15 peptide: KALEHVVRV
The experiment in a line: cytokine release.

B1: R10P2G12 (TCR, V domains shown)
Valpha: AQKVTQAQTEISVVEKEDVTLDCVYETRDTTYYLFWYKQPPSGELVFLIRRNSFDEQNEISGRYSWNFQKSTSSFNFTITASQVVDSAVYFCALSEGNSGNTPLVFGKGTRLSVIA
Vbeta: DVKVTQSSRYLVKRTGEKVFLECVQDMDHENMFWYRQDPGLGLRLIYFSYDVKMKEKGDIPEGYSVSREKKERFSLILESASTNQTSMYLCASSLSSGSHQETQYFGPGTRLLVL
Regarding B1, the binding result in assay [1] is reported as “recognises”; in assay [2] it was “recognises”; in [3] it was “no recognition”; in [4], “no recognition”; in assay [5], “no recognition”; in assay [6] it was “no recognition”. Moreover, the binding result is recorded as “no recognition” in assay [7]; “no recognition” in assay [8]; “no recognition” in assay [9]; “recognises” in assay [10]; “no recognition” in assay [11]; “no recognition” in assay [12]. In addition, the binding result is recorded as “recognises” in assay [13] and “no recognition” in assay [14].

B2: R20P1H7 (TCR, V domains shown)
Valpha: EDQVTQSPEALRLQEGESSSLNCSYTVSGLRGLFWYRQDPGKGPEFLFTLYSAGEEKEKERLKATLTKKESFLHITAPKPEDSATYLCAVQGENSGYSTLTFGKGTMLLVSP
Vbeta: EAQVTQNPRYLITVTGKKLTVTCSQNMNHEYMSWYRQDPGLGLRQIYYSMNVEVTDKGDVPEGYKVSRKEKRNFPLILESPSPNQTSLYFCASSLGPGLAAYNEQFFGPGTRLTVL
With B2, the binding result in assay [1] is “recognises”; in [2] it was “recognises”; in [3], “no recognition”; in assay [4], “no recognition”; in [15], “recognises”; in [5], “no recognition”. Moreover, the binding result was “no recognition” in [6]; “no recognition” in assay [7]; “no recognition” in assay [8]; “no recognition” in assay [9]; “recognises” in assay [10]; “no recognition” in [11]. In addition, the binding result in assay [12] and in assay [14] was “no recognition” throughout.
